# Laboratory results reported in the supplement of paper PMC9732359.
# ± gives the uncertainty stated by the source.
# Assay: protein stability index of a GFP-peptide fusion (yeast GPS) (PSI 1-4); higher = more stable; sorted into four equal gates, so the index is relative within each strain
# Outline: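 Mid-log yeast cultures in leucine-free medium, carrying a pooled plasmid library, were sorted into four equal gates by their GFP/Cherry fluorescence ratio. Each plasmid expressed Cherry along with GFP fused upstream of a tiled 17-residue yeast protein peptide. Plasmids recovered from each gate were PCR-amplified and Illumina-sequenced, with reads assigned to strains by barcodes. The protein stability index was obtained by summing each gate's read frequency weighted by its gate number.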
sequence,measurement,setting,value
KKSLEEDDEFEDFPIDT [SEM1],protein stability index,doa10∆,3 ± 0.13
same,protein stability index,pdr5∆,3.02 ± 0.13
same,protein stability index,san1∆,2.66 ± 0.14
same,protein stability index,ubr1∆,3.02 ± 0.088
VNNTRRRVYNRVLETTL [BRN1],protein stability index,doa10∆,2.5 ± 0.07
same,protein stability index,pdr5∆,2.98 ± 0.094
same,protein stability index,san1∆,2.87 ± 0.1
same,protein stability index,ubr1∆,2.65 ± 0.11
SNVNSDIYFKLKKLEKE [RPT3],protein stability index,doa10∆,3.22 ± 0.09
same,protein stability index,pdr5∆,2.73 ± 0.09
same,protein stability index,san1∆,2.93 ± 0.086
same,protein stability index,ubr1∆,3.03 ± 0.072
PAKPALSFGTATSDNKT [YJL041W/NSP1],protein stability index,doa10∆,3.05 ± 0.09
same,protein stability index,pdr5∆,3.12 ± 0.072
same,protein stability index,san1∆,2.93 ± 0.097
same,protein stability index,ubr1∆,3.08 ± 0.048
DDDQIESLKKSPIFEVL [ARP9],protein stability index,doa10∆,3.16 ± 0.064
same,protein stability index,pdr5∆,3.15 ± 0.046
same,protein stability index,san1∆,3.06 ± 0.033
same,protein stability index,ubr1∆,3.2 ± 0.04
TKFQTTDRESYPRLQDP [YCS4],protein stability index,doa10∆,3 ± 0.072
same,protein stability index,pdr5∆,3.15 ± 0.055
same,protein stability index,san1∆,3.13 ± 0.079
same,protein stability index,ubr1∆,3.05 ± 0.074
TKSMVKIAEQYSKRIEE [RPN11],protein stability index,doa10∆,2.32 ± 0.075
same,protein stability index,pdr5∆,1.94 ± 0.052
same,protein stability index,san1∆,2.03 ± 0.1
same,protein stability index,ubr1∆,2.28 ± 0.067
VMTYKGEVLGITRFGLS [RPO31],protein stability index,doa10∆,3.37 ± 0.16
same,protein stability index,san1∆,3.09 ± 0.12
same,protein stability index,ubr1∆,3.46 ± 0.29
RSPPRPPSLKIIDGPKA [PRP28],protein stability index,doa10∆,2.23 ± 0.07
same,protein stability index,pdr5∆,2.27 ± 0.079
same,protein stability index,san1∆,1.98 ± 0.094
same,protein stability index,ubr1∆,1.74 ± 0.041
EIGLLGGRYVYPVHEAH [SNU114],protein stability index,doa10∆,1.85 ± 0.064
same,protein stability index,pdr5∆,2.55 ± 0.091
same,protein stability index,san1∆,2.79 ± 0.077
same,protein stability index,ubr1∆,2.03 ± 0.084
SEEEEDEEENGSSDEDL [SSN2],protein stability index,doa10∆,3.48 ± 0.26
same,protein stability index,pdr5∆,3.74 ± 0.24
same,protein stability index,san1∆,3.63 ± 0.12
same,protein stability index,ubr1∆,3.32 ± 0.17
MDNPRKLSKILRTEYGW [SNU114],protein stability index,doa10∆,3.11 ± 0.068
same,protein stability index,pdr5∆,2.99 ± 0.081
same,protein stability index,san1∆,2.91 ± 0.059
same,protein stability index,ubr1∆,2.94 ± 0.066
HKVSSQSTNLNRSAKNS [YCS4],protein stability index,doa10∆,2.24 ± 0.054
same,protein stability index,pdr5∆,2.41 ± 0.05
same,protein stability index,san1∆,2.38 ± 0.079
same,protein stability index,ubr1∆,2.32 ± 0.05
ELSNELSRLSTASKIIV [MED1],protein stability index,doa10∆,2.68 ± 0.087
same,protein stability index,pdr5∆,2.55 ± 0.089
same,protein stability index,san1∆,2.72 ± 0.097
same,protein stability index,ubr1∆,3.26 ± 0.077
KPQLKFKSPIDNSESHP [RRP6],protein stability index,doa10∆,2.77 ± 0.083
same,protein stability index,pdr5∆,3.06 ± 0.06
same,protein stability index,san1∆,2.89 ± 0.084
same,protein stability index,ubr1∆,3.12 ± 0.034
VFKTHSYRGVDLEKLLE [RPS15],protein stability index,doa10∆,3.2 ± 0.083
same,protein stability index,pdr5∆,3.18 ± 0.062
same,protein stability index,san1∆,3.14 ± 0.045
same,protein stability index,ubr1∆,2.29 ± 0.04
TGNTTSKSAFSFGTANT [YOR098C/NUP1],protein stability index,doa10∆,2.5 ± 0.064
same,protein stability index,pdr5∆,2.72 ± 0.058
same,protein stability index,san1∆,1.95 ± 0.076
same,protein stability index,ubr1∆,2.75 ± 0.056
KITIGIQRTTESLILKW [RGR1],protein stability index,doa10∆,2.33 ± 0.086
same,protein stability index,pdr5∆,1.6 ± 0.067
same,protein stability index,san1∆,1.49 ± 0.078
same,protein stability index,ubr1∆,1.66 ± 0.04
WDLSVEDALYLGKRSIL [PRE2],protein stability index,doa10∆,3.4 ± 0.06
same,protein stability index,pdr5∆,3.34 ± 0.056
same,protein stability index,san1∆,3.17 ± 0.064
same,protein stability index,ubr1∆,3.39 ± 0.048
PQLISDKFSPEDGLGPL [ARP7],protein stability index,doa10∆,2.84 ± 0.072
same,protein stability index,pdr5∆,2.83 ± 0.067
same,protein stability index,san1∆,2.6 ± 0.062
same,protein stability index,ubr1∆,2.61 ± 0.055
EFSPRLHNIWSNGLLSI [YML103C/NUP188],protein stability index,doa10∆,1.85 ± 0.061
same,protein stability index,pdr5∆,1.91 ± 0.059
same,protein stability index,san1∆,2.08 ± 0.11
same,protein stability index,ubr1∆,1.89 ± 0.046
KIDIIELQKSLSLEEVE [FAS1],protein stability index,doa10∆,2.92 ± 0.14
same,protein stability index,pdr5∆,2.62 ± 0.15
same,protein stability index,san1∆,2.52 ± 0.077
same,protein stability index,ubr1∆,2.79 ± 0.088
SDFTFPEYYSTARVMGG [DIS3],protein stability index,doa10∆,1.57 ± 0.073
same,protein stability index,pdr5∆,1.39 ± 0.084
same,protein stability index,ubr1∆,1.38 ± 0.13
NTLEFIIEQLSIAAERY [YCG1],protein stability index,doa10∆,2.29 ± 0.052
same,protein stability index,pdr5∆,2.62 ± 0.072
same,protein stability index,san1∆,2.16 ± 0.066
same,protein stability index,ubr1∆,2.39 ± 0.036
SLQDRSSLVRRNSVKLL [YCS4],protein stability index,doa10∆,2.02 ± 0.055
same,protein stability index,pdr5∆,2.12 ± 0.049
same,protein stability index,san1∆,1.94 ± 0.062
same,protein stability index,ubr1∆,1.56 ± 0.027
TLKLRARQRGKLKKSEE [SRP68],protein stability index,doa10∆,3.44 ± 0.15
same,protein stability index,pdr5∆,3.27 ± 0.11
same,protein stability index,san1∆,3.36 ± 0.067
same,protein stability index,ubr1∆,3.67 ± 0.21
TITDLIEQGIPKHSYLS [SIR4],protein stability index,doa10∆,3.05 ± 0.059
same,protein stability index,pdr5∆,3.16 ± 0.06
same,protein stability index,san1∆,3.21 ± 0.073
same,protein stability index,ubr1∆,3.17 ± 0.043
RHHRKTEKEEDAELMAD [ISW2],protein stability index,doa10∆,3.5 ± 0.13
same,protein stability index,pdr5∆,3.31 ± 0.11
same,protein stability index,san1∆,3.15 ± 0.091
same,protein stability index,ubr1∆,3.32 ± 0.089
GGPWFTDGELDIEFINS [RPC34],protein stability index,doa10∆,3.14 ± 0.15
same,protein stability index,pdr5∆,3.42 ± 0.12
same,protein stability index,san1∆,2.55 ± 0.21
same,protein stability index,ubr1∆,3.17 ± 0.081
DVVGTLSRNGKPVMEVT [FAS1],protein stability index,doa10∆,2.62 ± 0.13
same,protein stability index,pdr5∆,2.81 ± 0.13
same,protein stability index,san1∆,2.65 ± 0.12
same,protein stability index,ubr1∆,2.63 ± 0.08
ESLVHSALCILKEQELV [BRR2],protein stability index,doa10∆,2.35 ± 0.2
same,protein stability index,pdr5∆,1.77 ± 0.079
same,protein stability index,san1∆,1.92 ± 0.14
same,protein stability index,ubr1∆,2.51 ± 0.13
RVAASFSQEALQYVVER [FAS1],protein stability index,doa10∆,1.06 ± 0.091
same,protein stability index,pdr5∆,1.19 ± 0.11
same,protein stability index,ubr1∆,1.14 ± 0.089
CRVCSSHTGLIRKYGLN [RPS29A],protein stability index,doa10∆,1.5 ± 0.13
same,protein stability index,pdr5∆,1.53 ± 0.1
same,protein stability index,san1∆,1.48 ± 0.15
same,protein stability index,ubr1∆,1.59 ± 0.069
NKLGNDPSLNLKLLAKS [BRR2],protein stability index,doa10∆,2.64 ± 0.062
same,protein stability index,pdr5∆,2.56 ± 0.079
same,protein stability index,san1∆,2.86 ± 0.07
same,protein stability index,ubr1∆,2.55 ± 0.096
AKAVWENIIIVGGTTSI [ARP9],protein stability index,doa10∆,1.89 ± 0.044
same,protein stability index,pdr5∆,2.12 ± 0.057
same,protein stability index,san1∆,1.67 ± 0.081
same,protein stability index,ubr1∆,2.48 ± 0.054
GAAGAWMMNGALQILNS [FAS2],protein stability index,doa10∆,1.48 ± 0.046
same,protein stability index,pdr5∆,1.65 ± 0.064
same,protein stability index,san1∆,2.08 ± 0.12
same,protein stability index,ubr1∆,1.68 ± 0.057
QQQQDLQQQQQVVTTVA [SNF6],protein stability index,doa10∆,1.55 ± 0.097
same,protein stability index,pdr5∆,1.87 ± 0.083
same,protein stability index,san1∆,1.87 ± 0.23
same,protein stability index,ubr1∆,1.54 ± 0.092
GTYIQERNPTQRPQRRY [RPS10A],protein stability index,doa10∆,3.01 ± 0.051
same,protein stability index,pdr5∆,3.1 ± 0.041
same,protein stability index,san1∆,3.07 ± 0.034
same,protein stability index,ubr1∆,3.14 ± 0.032
PKNKLVPTLEAKRDYII [FAS1],protein stability index,doa10∆,1.71 ± 0.071
same,protein stability index,pdr5∆,1.59 ± 0.1
same,protein stability index,san1∆,2.63 ± 0.098
same,protein stability index,ubr1∆,2.15 ± 0.11
SKLGKNLQTVHFGHCFN [GRR1],protein stability index,doa10∆,1.42 ± 0.092
same,protein stability index,san1∆,2.68 ± 0.11
same,protein stability index,ubr1∆,2.25 ± 0.11
LVRRLSDIKQGYTQHGG [PRE9],protein stability index,doa10∆,2.5 ± 0.14
same,protein stability index,pdr5∆,2.06 ± 0.25
same,protein stability index,san1∆,2.48 ± 0.09
KVDIFEIPETGEYSVKL [FAS2],protein stability index,doa10∆,3.17 ± 0.093
same,protein stability index,pdr5∆,3.37 ± 0.08
same,protein stability index,san1∆,3.27 ± 0.046
same,protein stability index,ubr1∆,2.99 ± 0.049
TPLSIKIMVAEWYLSHL [SRB8],protein stability index,doa10∆,2.83 ± 0.084
same,protein stability index,pdr5∆,2.59 ± 0.095
same,protein stability index,san1∆,2.18 ± 0.092
same,protein stability index,ubr1∆,2.5 ± 0.063
SSSSDIIVPDLIELKSD [YML103C/NUP188],protein stability index,doa10∆,2.71 ± 0.085
same,protein stability index,pdr5∆,3.15 ± 0.059
same,protein stability index,san1∆,2.67 ± 0.13
same,protein stability index,ubr1∆,2.7 ± 0.07
KHFIQGGSFGNREEFIN [RPL7A],protein stability index,doa10∆,1.61 ± 0.21
same,protein stability index,pdr5∆,1.86 ± 0.14
same,protein stability index,san1∆,1.21 ± 0.23
same,protein stability index,ubr1∆,1.56 ± 0.04
YGYFSVGKRVPIVEDRR [SIR4],protein stability index,doa10∆,3.12 ± 0.12
same,protein stability index,pdr5∆,2.28 ± 0.1
same,protein stability index,san1∆,2.16 ± 0.13
same,protein stability index,ubr1∆,2.75 ± 0.26
ETRAELSQLCAVPLQIV [RPO21],protein stability index,doa10∆,1.96 ± 0.087
same,protein stability index,pdr5∆,2.32 ± 0.14
same,protein stability index,san1∆,2.24 ± 0.21
same,protein stability index,ubr1∆,2.71 ± 0.19
ILDFGPGGASGLGVLTH [FAS1],protein stability index,doa10∆,2.82 ± 0.082
same,protein stability index,pdr5∆,2.74 ± 0.092
same,protein stability index,ubr1∆,2.84 ± 0.2
IQEQRVKDKQSKVSDDS [RPN8],protein stability index,doa10∆,1.97 ± 0.11
same,protein stability index,pdr5∆,2.79 ± 0.13
same,protein stability index,ubr1∆,2.92 ± 0.13
ELQIFKTANSSSDAFEK [YIL149C/MLP2],protein stability index,doa10∆,2.44 ± 0.049
same,protein stability index,pdr5∆,2.73 ± 0.049
same,protein stability index,san1∆,2.61 ± 0.061
same,protein stability index,ubr1∆,2.75 ± 0.049
LVYNMTSFEQGEITFDG [RPT4],protein stability index,doa10∆,2.65 ± 0.095
same,protein stability index,pdr5∆,2.33 ± 0.079
same,protein stability index,san1∆,2.97 ± 0.085
same,protein stability index,ubr1∆,2.94 ± 0.17
LLMRLEGNYRNLNNLKQ [RPB8],protein stability index,doa10∆,3.29 ± 0.14
same,protein stability index,pdr5∆,3.13 ± 0.13
same,protein stability index,san1∆,3.22 ± 0.2
same,protein stability index,ubr1∆,3.37 ± 0.082
